The source of these data is patent US20120014941A1 (Hoffmann-La Roche, published 2012).

Where two headings read alike, the source gives them in different places.

For experiment [1], the target named is Cynomologus Monkey Bv8 (Genentech; PUR21590) (cynomolgus monkey). The experiment is described as follows: SPR (BIAcore 3000, 25 C): cynomolgus monkey Bv8 coupled to CM5 chip, IgG injected; 1:1 Langmuir fit. (In general: In SPR one partner is held on a chip, and binding of the other changes the refractive index at the surface.)
The target of experiment [2] is T1, recombinant human Bv8 (PeproTech) (human, UniProt Q9HC23-2 28-108, biotinylated (Sulfo-NHS-LC-biotin) in the two competition ELISAs with coated antibody).
T1 construct: Bought protein; also called HuBv8; prokineticin-2
T1 sequence (looked up): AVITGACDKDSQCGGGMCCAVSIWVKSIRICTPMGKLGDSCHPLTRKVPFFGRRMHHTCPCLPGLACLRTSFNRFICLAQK
Description: SPR (BIAcore 3000, 25 C): human Bv8 coupled to CM5 chip, IgG injected; 1:1 Langmuir fit. The text has this:
(§1) For binding affinity determinations of anti-Bv8 antibodies (Fab or IgG), Surface Plasmon Resonance (SRP) measurement with a BIAcore™-3000 instrument was used. Briefly, CM5 biosensor chip was activated with EDC and NHS reagents according to the supplier's instructions, and human Bv8 (PeproTech) or Cynomologus Monkey (Genentech; PUR21590) was coupled to achieve approximately 150 response units (RU), then following by blocking un-reacted groups with 1M ethanolamine. For kinetics measurements, two-fold serial dilutions of anti-Bv8 Fabs (0.19 nM to 25 nM) or IgGs (0.019 nM to 10 nM) were injected in HBS-P buffer (0.01M HEPES pH 7.4, 0.15M NaCl, 0.005% surfactant P20) at 25° C. with a flow rate of 30 μl/min. Association rates (kₒₙ) and dissociation rates (koff) were calculated using a simple one-to-one Langmuir binding model (BIAcore Evaluation Software version 3.2). The equilibrium dissociation constant (Kd) was calculated as the ratio koff/kₒₙ.

The target in experiment [3] is T1, recombinant human Bv8 (PeproTech). Description: competitive ELISA: antibody in serial dilution mixed with biotinylated human Bv8 (57 pM) and put on plate coated with mouse 2G9 IgG1 (m5, the competitor); streptavidin-HRP, OD 450/620; four-parameter fit. As for the experimental part: Maxisorp 384 well plates were coated with 1 μg/ml parent mouse 2G9 IgG1 antibody at 25 μl/well in 50 mM sodium carbonate buffer, pH 9.6, at 4° C. overnight. Plates were washed with phosphate buffered saline (PBS) containing 0.05% polysorbate, pH 7.4 and blocked with PBS containing 0.5% BSA, 10 ppm Proclin, pH 7.4, at 80 μL1/well. After one-hour incubation at room temperature, plates were washed. A mixture of serially diluted humanized 2G9 antibodies (0.11 pM-180 nM) in PBS containing 0.5% BSA, 0.05% polysorbate 20, pH 7.4 and biotinylated human Bv8 (final concentration 0.5 ng/ml or 57 pM) were added at 25 μL1/well. After two hour incubation, plates were washed and horseradish peroxidase conjugated streptavidin (GE Healthcare) was added. After a final 30 minute incubation, plates were washed and the substrate 3,3′,5,5′-tetramethyl benzidine (Kirkegaard & Perry Laboratories) was added. The reaction was stopped by adding 1 M phosphoric acid and absorbance was read at 450 nm on a Multiskan Ascent reader (Thermo Scientific, Hudson, N.H.). For data analysis, the titration curves were fitted using a four-parameter nonlinear regression curve-fitting program and the IC₅₀ concentrations were determined (KaleidaGraph, Synergy Software, Reading, Pa.).
On the technique in general: In an ELISA, binding on a coated surface is turned into a signal by an enzyme label.

For experiment [4] the target is unchanged. Description: SPR (BIAcore 3000, 25 C): human Bv8 coupled to CM5 chip, Fab injected; 1:1 Langmuir fit; N=3.
Text: as §1

The target is the same in experiment [5]. The experiment is described as follows: phage competition ELISA: Fab-displaying phage preincubated with serially diluted soluble human Bv8 (the concentration on the axis), unbound phage captured on plate-coated human Bv8, anti-M13-HRP; bound phage in %. The procedure:
(§2) MAXISORP™ microtiter plates were coated with recombinant human Bv8 (PeproTech) at 2 μg/ml in PBS overnight and then blocked with PBST buffer (0.5% BSA and 0.05% Tween 20 in PBS) for an hour at room temperature (RT). Phage from culture supernatants were incubated with serially diluted human Bv8 in PBST buffer in a tissue-culture microtiter plate for an hour at RT, after which 80 μl of the mixture was transferred to the target-coated wells for 15 minutes to capture unbound phage. The plate was washed with PBT buffer (0.05% Tween 20 in PBS), and HRP-conjugated anti-M13 (Amersham Pharmacia Biotech) was added (1:5000 in PBST buffer) for 40 minutes. The plate was washed with PBT buffer and developed by adding tetramethylbenzidine substrate (Kirkegaard and Perry Laboratories, Gaithersburg, Md.). The absorbance at 450 nm was plotted as a function of target concentration in solution to determine phage IC₅₀.

Experiment [6] shares this target. The description is as above. The procedure:
as §2
This is another data set of the same source.

Experiment [7] has as its target Cynomologus Monkey Bv8 (Genentech; PUR21590) (cynomolgus monkey). Description: SPR (BIAcore 3000, 25 C): cynomolgus monkey Bv8 coupled to CM5 chip, Fab injected; 1:1 Langmuir fit.
Experiment [8] addresses T1, recombinant human Bv8 (PeproTech). The experiment is described as follows: SPR (BIAcore 3000, 25 C): human Bv8 coupled to CM5 chip, Fab injected; 1:1 Langmuir fit.
Text: as §1

B1: h2G9.K4G1.Polish IgG (antibody, V domains shown)
VH: EVQLVQSGAEVKKPGASVKVSCKASGYSFTDYDMHWVRQAPGQGLEWIGYISSYSGATTYNQKFKGRVTITVDKSTSTAYLELSSLRSEDTAVYYCARDSNYGEAYAMDYWGQGTLVTVSS
VL: DIVMTQSPDSLAVSLGERATINCKASQSVDYSGDSYMNWYQQKPGQPPKLLIYAASNLESGVPDRFSGSGSGTDFTLTISSLQAEDVAVYYCQQINEDPFTFGQGTKVEIK
notes: IgG; constant regions not described for the humanized antibodies; also called parental polished K4G1 molecule
What is called Kd is the concentration at which binding is half-saturated. By koff is commonly meant a measure of how fast the partners let go of each other. Usually kon stands for the rate constant with which the complex forms. The IC50 is the concentration that inhibits the measured activity by half. In experiment [1], B1 gave a Kd of 0.03 nM, a koff of 1.5e-05 s⁻¹ and a kon of 454000 M⁻¹ s⁻¹. Moreover, in experiment [2], the dissociation constant Kd was found to be 0.02 nM, the koff came out at 1.2e-05 s⁻¹ and the kon amounted to 528000 M⁻¹ s⁻¹. Further, the IC50 in experiment [3] was 0.084 nM.

B2: h2G9.K4G1 (antibody, V domains shown)
VH: EVQLVQSGAEVKKPGASVKVSCKASGYSFTDYDMHWVRQAPGQGLEWIGYISCYNGATTYNQKFKGRVTITVDKSTSTAYLELSSLRSEDTAVYYCARDGNYGEAYAMDYWGQGTLVTVSS
VL: DIVMTQSPDSLAVSLGERATINCKASQSVDYDGDSYMNWYQQKPGQPPKLLIYAASNLESGVPDRFSGSGSGTDFTLTISSLQAEDVAVYYCQQINEDPFTFGQGTKVEIK
notes: also called h2G9.K4G1 anti-Bv8 antibody
In the case of B2, the IC50 in experiment [3] came to 0.984 nM.

B3: h2G9.K4G1.Polish Fab (Fab, V domains shown)
VH: EVQLVQSGAEVKKPGASVKVSCKASGYSFTDYDMHWVRQAPGQGLEWIGYISSYSGATTYNQKFKGRVTITVDKSTSTAYLELSSLRSEDTAVYYCARDSNYGEAYAMDYWGQGTLVTVSS
VL: DIVMTQSPDSLAVSLGERATINCKASQSVDYSGDSYMNWYQQKPGQPPKLLIYAASNLESGVPDRFSGSGSGTDFTLTISSLQAEDVAVYYCQQINEDPFTFGQGTKVEIK
notes: also called polished K4G1
Consider B3, for which, in experiment [4], the dissociation constant Kd turned out to be 1.44 nM, the koff was 0.000689 s⁻¹ and the on-rate constant (kon) was found to be 475000 M⁻¹ s⁻¹. Besides, the “IC50 (read off the curve)” value in experiment [5] is about 0.2 nM. In experiment [6], the “IC50 (read off the curve)” value was about 0.2 nM.

B4: h2G9.K4G1.v55 Fab (Fab, V domains shown)
VH: EVQLVQSGAEVKKPGASVKVSCKASGYSFTDYDMHWVRQAPGQGLEWIGYISSYSGATTYNQKFKGRVTITVDKSTSTAYLELSSLRSEDTAVYYCARDSNYGEAYAMDYWGQGTLVTVSS
VL: DIVMTQSPDSLAVSLGERATINCKASQSLDYYHYSYMNWYQQKPGQPPKLLIYAASNRESGVPDRFSGSGSGTDFTLTISSLQAEDVAVYYCQQINEDPFTFGQGTKVEIKR
notes: Variable domains only; claims 8 and 9)
Regarding B4, the Kd in experiment [7] was determined as 0.42 nM; in experiment [8], 0.18 nM; in experiment [4] it was 0.28 nM. Besides, the koff is 0.000129 s⁻¹ in experiment [7], 7.2e-05 s⁻¹ in experiment [8] and 0.000136 s⁻¹ in experiment [4]. The kon came out at 310000 M⁻¹ s⁻¹ in experiment [7], 396000 M⁻¹ s⁻¹ in experiment [8] and 484000 M⁻¹ s⁻¹ in experiment [4]. Besides, the “IC50 (read off the curve)” value in experiment [6] is about 0.06 nM.

B5: h2G9.K4G1.v19 Fab (Fab, V domains shown)
VH: EVQLVQSGAEVKKPGASVKVSCKASGYSLTNYDMHWVRQAPGQGLEWIGYIHSYSGSTLYNQKFKGRVTITVDKSTSTAYLELSSLRSEDTAVYYCARDSNYGEAYAMDYWGQGTLVTVSS
VL: DIVMTQSPDSLAVSLGERATINCKASQSVDYSGDSYMNWYQQKPGQPPKLLIYAASNLESGVPDRFSGSGSGTDFTLTISSLQAEDVAVYYCQQINEDPFTFGQGTKVEIKR
notes: Variable domains only; claims 6 and 7)
As to B5, in experiment [7], the Kd worked out at 0.1 nM, the koff was found to be 2.8e-05 s⁻¹ and the kon is 267000 M⁻¹ s⁻¹. Further, in experiment [8], the Kd stood at 0.04 nM, the koff is 1.6e-05 s⁻¹ and the kon is 359000 M⁻¹ s⁻¹. For the same molecule, in experiment [4], the Kd came to 0.08 nM, the off-rate constant (koff) is 3.8e-05 s⁻¹ and the on-rate (kon) stood at 471000 M⁻¹ s⁻¹. Moreover, the “IC50 (read off the curve)” value in experiment [5] was about 0.09 nM.

B6: h2G9.K4G1 variant CDR-L1 G29S (Fab, V domains shown)
VH: EVQLVQSGAEVKKPGASVKVSCKASGYSFTDYDMHWVRQAPGQGLEWIGYISCYNGATTYNQKFKGRVTITVDKSTSTAYLELSSLRSEDTAVYYCARDGNYGEAYAMDYWGQGTLVTVSS
VL: DIVMTQSPDSLAVSLGERATINCKASQSVDYDSDSYMNWYQQKPGQPPKLLIYAASNLESGVPDRFSGSGSGTDFTLTISSLQAEDVAVYYCQQINEDPFTFGQGTKVEIK
B6: the “IC50 (read off the curve)” value in experiment [6] is about 1 nM.
